Data reported in PMC9300613.

Columns and labels:
[1] = biological target: bovine brain αβ-tubulin (taxol-stabilised microtubules, dolastatin-induced rings or DARPin-capped free dimer for biochemical assays) (bovine) (UniProt Q6B856)
[2] = biological target: bovine brain αβ-tubulin (taxol-stabilised microtubules, dolastatin-induced rings or DARPin-capped free dimer for biochemical assays) (bovine) (UniProt Q6B856); assay: co-sedimentation; 1 μM kinesin with 0-10 μM taxol-stabilised microtubules, BRB80 + 100 mM KCl, 2 mM AMP-PNP, 20 μM taxol, 20 min at 25 °C; pellet and supernatant by SDS-PAGE; Kd from a quadratic fit

Q: Which microtubule-gliding speed of HsKHC-MDN (L2-CaKip3) relative to HsKHC-MDN (taxol-stabilised microtubules) [1] does the source give for “HsKHC-MDN_(L2-CaKip3) (HsKHC-MDN with loop-2 IASK, I41-K44, replaced by CaKip3 loop-2 F116-H144) (from UniProt P33176;A0A1D8PKA4) (domain or fragment)” here?
A: 2 fold

Q: And the microtubule-stimulated ATP turnover at steady state, relative to HsKHC-MDN [1]?
A: 2 fold

Q: And the fold greater affinity than HsKHC-MDN [2]?
A: 7 fold
